Data: US6391305
Values joined by “and” are separate entries in the source; they are usually repeats but may differ in a detail not shown here. Identical values can stand only once.

Tests used:
[1] = test system: 2-hydroxyacetyl-hRSSYQ-SNle-acid
[2] = test system: PEG(2)-HomoRSSChgQ-SL-DOX (3′)
[3] = test system: PEG(6)-ASChgQ-SL-DOX (3′)
[4] = test system: (d)2,3-dihydroxypropionyl-HomoRSSChgQSL-DOX (3′)
[5] = test system: (d)2,3-dihydroxypropionyl-SHomoRChgQ-SL-DOX (3′)
[6] = test system: (2R,3S) 2,3,4-trihydroxybutanoyl-SHomoRChgQ-SL-DOX (3′)
[7] = test system: 2-hydroxyacetyl-hRSSYQ-SL-acid
[8] = test system: (l)2,3-dihydroxypropionylSSSChgQ-SL-DOX (3′)
[9] = test system: 2,3-dihydroxypropionyl-ShRChgQ-SL-acid
[10] = test system: 2-hydroxyacetyl-HomoRASChgQ-SL-DOX (3′)
[11] = test system: PEG(4)-β-PAL-SSChgQ-SL-acid
[12] = test system: 2-hydroxyacetyl-SSChgQ-SL-acid
[13] = test system: (d)2,3-dihydroxypropionylSSSChgQ-SL-DOX (3′)
[14] = test system: PEG(2)-3PAL-SSChgQ-SL-acid
[15] = test system: 2-hydroxyacetyl-hRASChgQ-SL-acid
[16] = test system: (l)2,3-dihydroxypropionyl-HomoRSSChgQ-SL-DOX (3′)
[17] = test system: PEG(2)-SHomoRYQ-SL-DOX(3′)
[18] = test system: 2(S)2,3-dihydroxypropionyl-hRSSChgQ-SL-acid
[19] = test system: 2-hydroxyacetyl-HomoRSSYQ-SL-DOX (3′)
[20] = test system: PEG(2)-SHomoRChgQ-SL-DOX (3′)
[21] = test system: 2-hydroxyacetyl-SHomoRChgQ-SL-DOX (3′)
[22] = test system: (l)2,3-dihydroxypropionyl-SSChgQ-SL-DOX (3′)
[23] = test system: 2-hydroxyacetyl-HomoRSSChgQ-SL-DOX (3′)
[24] = test system: 2,3-dihydroxypropionyl-SSSChgQ-SL-acid
[25] = test system: 2,3-dihydroxypropionyl-HomoSSSChgQ-SL-DOX (3′)
[26] = test system: (l)2,3-dihydroxypropionyl-SSSChgQ-SL-acid
[27] = test system: PEG(2)-ASChgQ-SL-DOX (3′)
[28] = test system: (d)2,3-dihydroxypropionyl-3PAL-SSChgQSL-acid
[29] = test system: (d)2,3-dihydroxypropionylSSChgQ-SL-DOX (3′)
[30] = test system: (2R,3S) 2,3,4-trihydroxybutanoyl-ShRChgQ-SL-acid
[31] = test system: 2,3-dihydroxypropionyl-GSSChgQ-SL-acid
[32] = test system: PEG(16)-SHomoRYQ-SL-DOX (3′)
[33] = test system: 2-hydroxyacetyl-HomoRSSYQ-SNle-DOX (3′)
[34] = test system: (l)2,3-dihydroxypropionyl-SHomoRChgQ-SL-DOX (3′)
[35] = test system: 2,3-dihydroxypropionyl-ShRYQ-SL-acid
[36] = test system: 2,3-dihydroxypropionyl-hSSSChgQ-SL-acid
[37] = test system: 2-hydroxyacetylhRYQ-SL-acid
[38] = test system: (l)2,3-dihydroxypropionyl-SSChgQ-SL-acid
[39] = test system: (l)2,3-dihydroxypropionylSSSChgQ-S(dL)-DOX (3′)
[40] = test system: PEG(2)-SSSChgQ-SL-DOX (3′)
[41] = test system: 2-hydroxyacetyl-SSSChgQ-SL-DOX (3′)
[42] = test system: PEG(2)-SHomoRYQ-SL-DOX (3′)
[43] = test system: (l)2,3-dihydroxypropionyl-3PAL-SSChgQ-SL-acid
[44] = test system: 2-hydroxyacetyl-SSChgQ-SL-DOX (3′)
[45] = test system: 2(S)-2,3-dihydroxy-propionyl ShRChgQSL-acid
[46] = test system: (d)2,3-dihydroxypropionyl-3PALSSChgQ-SL-DOX (3′).AcOH

Substance: free prostate specific antigen (PSA)
- Time to 50% Substrate Cleavage by York PSA [1]: 45 min
- Time to 50% Substrate Cleavage by York PSA [2]: 11 min
- Time to 50% Substrate Cleavage by York PSA (Min) (Ac-ShRYQ-SNle-acid): 25 (PS)
- Time to 50% Substrate Cleavage by York PSA (Ac-ANKASYQ-SL-acid): 135 min and 220 min
- Time to 50% Substrate Cleavage by York PSA [3]: 160 min
- Time to 50% Substrate Cleavage by York PSA (PEG(2)SSChgQ-SL-DOX (3′)): 90 min
- Time to 50% Substrate Cleavage by York PSA [4]: 12 min
- Time to 50% Substrate Cleavage by York PSA [5]: 65 min
- Time to 50% Substrate Cleavage by York PSA [6]: 45 min
- Time to 50% Substrate Cleavage by York PSA (PEG(16)-ShRYQ-SL-acid): 40 min
- Time to 50% Substrate Cleavage by York PSA (Min) [7]: 35 (PP)
- Time to 50% Substrate Cleavage by York PSA [8]: 25 min
- Time to 50% Substrate Cleavage by York PSA [9]: 75 min
- Time to 50% Substrate Cleavage by York PSA [10]: 10 min
- Time to 50% Substrate Cleavage by York PSA [11]: 60 min
- Time to 50% Substrate Cleavage by York PSA (PEG(2)-S-hRChgQ-SL-acid): 30 min
- Time to 50% Substrate Cleavage by York PSA (PEG(2)-hRSSChgQ-SL-acid): 40 min
- Time to 50% Substrate Cleavage by York PSA [12]: 180 min
- Time to 50% Substrate Cleavage by York PSA [13]: 55 min
- Time to 50% Substrate Cleavage by York PSA [14]: 80 min
- Time to 50% Substrate Cleavage by York PSA (PEG(19)ShRYQ-SL-acid): 60 min
- Time to 50% Substrate Cleavage by York PSA [15]: 70 min
- Time to 50% Substrate Cleavage by York PSA [16]: 12 min
- Time to 50% Substrate Cleavage by York PSA [17]: 35 min
- Time to 50% Substrate Cleavage by York PSA (AchRSSChgQ-SL-acid): 120 min and 45 min
- Time to 50% Substrate Cleavage by York PSA [18]: 25 min
- Time to 50% Substrate Cleavage by York PSA (Min) [19]: 16 (PS)
- Time to 50% Substrate Cleavage by York PSA [20]: 25 min
- Time to 50% Substrate Cleavage by York PSA [21]: 15 min
- Time to 50% Substrate Cleavage by York PSA (Min) (Ac-hRSSYQ-SNle-acid): 25 (PS)
- Time to 50% Substrate Cleavage by York PSA [22]: 25 min
- Time to 50% Substrate Cleavage by York PSA (PEG(2)SSSChgQ-SL-acid): 150 min
- Time to 50% Substrate Cleavage by York PSA [23]: 12 min
- Time to 50% Substrate Cleavage by York PSA [24]: 120 min
- Time to 50% Substrate Cleavage by York PSA [25]: 35 min
- Time to 50% Substrate Cleavage by York PSA [26]: 80 min and 110 min
- Time to 50% Substrate Cleavage by York PSA [27]: 45 min
- Time to 50% Substrate Cleavage by York PSA [28]: 80 min
- Time to 50% Substrate Cleavage by York PSA (PEG(17)-ShRYQ-SL-acid): 55 min
- Time to 50% Substrate Cleavage by York PSA [29]: 120 min
- Time to 50% Substrate Cleavage by York PSA (Ac-hRASChgQ-SL-acid): 50 min
- Time to 50% Substrate Cleavage by York PSA [30]: 90 min
- Time to 50% Substrate Cleavage by York PSA [31]: 160 min
- Time to 50% Substrate Cleavage by York PSA [32]: 65 min
- Time to 50% Substrate Cleavage by York PSA [33]: 60 min
- Time to 50% Substrate Cleavage by York PSA [34]: 15 min
- Time to 50% Substrate Cleavage by York PSA [35]: 35 min and 50 min
- Time to 50% Substrate Cleavage by York PSA [36]: 160 min
- Time to 50% Substrate Cleavage by York PSA [37]: 105 min
- Time to 50% Substrate Cleavage by York PSA [38]: 180 min
- Time to 50% Substrate Cleavage by York PSA [39]: 180 min
- Time to 50% Substrate Cleavage by York PSA (Min) (Ac-hR(CHA)Q-SNle-acid): 200 (PS)
- Time to 50% Substrate Cleavage by York PSA (PEG(18)ShRYQ-SL-acid): 40 min
- Time to 50% Substrate Cleavage by York PSA (PEG(1)-hRSSChgQ-SL-acid): 30 min
- Time to 50% Substrate Cleavage by York PSA (PEG(1)-ShRChgQ-SL-acid): 120 min
- Time to 50% Substrate Cleavage by York PSA (PEG(15)-ShRYQ-SL-acid): 40 min
- Time to 50% Substrate Cleavage by York PSA [40]: 60 min
- Time to 50% Substrate Cleavage by York PSA (PEG(1)-ShRYQ-SL-acid): 90 min
- Time to 50% Substrate Cleavage by York PSA ((OH-Ac)SSSChgQ-SL-acid): 120 min
- Time to 50% Substrate Cleavage by York PSA [41]: 25 min
- Time to 50% Substrate Cleavage by York PSA [42]: 60 min
- Time to 50% Substrate Cleavage by York PSA (PEG(14)ShRYQ-SL-acid): 40 min
- Time to 50% Substrate Cleavage by York PSA [43]: 70 min
- Time to 50% Substrate Cleavage by York PSA [44]: 45 min
- Time to 50% Substrate Cleavage by York PSA (PEG(2)-ShRYQ-SL-acid): 35 min
- Time to 50% Substrate Cleavage by York PSA [45]: 35 min
- Time to 50% Substrate Cleavage by York PSA (Min) [46]: 12 (PS)
